According to the supplement of paper PMC9732359:
± gives the uncertainty stated by the source.

Experiment: protein stability index of a GFP-peptide fusion (yeast GPS) (PSI 1-4); higher = more stable; sorted into four equal gates, so the index is relative within each strain
Outline: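 Sequencing reads from sorted gates were used to score each peptide. The library consisted of tiled 17-residue yeast protein peptides fused downstream of GFP on a Cherry-expressing plasmid, pooled and carried in yeast. Mid-log cultures in leucine-free medium were split into four equal gates by GFP/Cherry ratio, and each gate's plasmids were PCR-amplified and Illumina-sequenced. The protein stability index adds up, over all gates, the read frequency multiplied by the gate number.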

Sequence | protein stability index (doa10∆) | protein stability index (pdr5∆) | protein stability index (san1∆) | protein stability index (ubr1∆)
SLDSCTAAFTAMICEAK [YJR042W/NUP85] | 2.79 ± 0.13 | 2.51 ± 0.11 | 2.99 ± 0.081 | 2.81 ± 0.096
TTKRLWSEITESMSYLP [MCD1] | 3.01 ± 0.12 | 2.91 ± 0.095 | 2.99 ± 0.11 | 2.73 ± 0.069
FAKEKLTKKEKKEANLF [RPL6A] | 3.02 ± 0.072 | 3.08 ± 0.08 | 3.19 ± 0.073 | 3.14 ± 0.05
DSELNRALFETKLNLHC [RRI1] | 2.75 ± 0.067 | 2.79 ± 0.053 | 3 ± 0.038 | 2.92 ± 0.055
KTLEKLESTIAETQGSK [IRR1] | – | – | 1.39 ± 0.27 | –
SKDEPVSKAVESKSLLN [SIR4] | 2.39 ± 0.097 | 2.82 ± 0.091 | 1.37 ± 0.12 | 1.86 ± 0.097
NLDIAKDLIRTDEALFE [MED4] | 3.44 ± 0.22 | 3.29 ± 0.19 | 2.46 ± 0.28 | 3.31 ± 0.24
ARIHAQNYLKTYNEDIP [PRE9] | 2.28 ± 0.051 | 1.99 ± 0.079 | 2.75 ± 0.085 | 2.05 ± 0.061
GATVFVNHLLLFAREIA [DPB4] | 1.94 ± 0.046 | 1.9 ± 0.04 | 1.41 ± 0.087 | 1.72 ± 0.039
LAFNYITYDKQEPSASQ [SRP68] | 3.19 ± 0.048 | 3.15 ± 0.056 | 2.97 ± 0.056 | 2.93 ± 0.037
EERKRWAMQGISYLQEV [PCI8] | 3.58 ± 0.19 | 3.15 ± 0.13 | 3.12 ± 0.15 | 3.23 ± 0.11
GGDGRDYKGAKLNVVGW [RRI1] | 3.15 ± 0.15 | 3.15 ± 0.15 | 2.56 ± 0.12 | 3.23 ± 0.084
LCDIDEVSDFDEMYELT [DIB1] | 2.43 ± 0.19 | 3.08 ± 0.1 | 2.65 ± 0.12 | 1.9 ± 0.16
DEFPELKEPVEDIIKRT [NUT2] | 3.5 ± 0.066 | 3.36 ± 0.07 | 3.31 ± 0.045 | 3.36 ± 0.048
AEMEADSLASELTLAEQ [SMC4] | – | – | 2.94 ± 0.15 | 3.39 ± 0.26
ARLEPGTAIGAIGAQSI [RPO31] | 2.76 ± 0.097 | 1.82 ± 0.079 | 1.49 ± 0.14 | 2.39 ± 0.053
PDMMVDSFTMPNISHSN [SNF2] | 3.28 ± 0.11 | 2.84 ± 0.098 | 2.72 ± 0.087 | 3.18 ± 0.093
LQVDVDIAGQRDDALVV [RRP42] | 2.07 ± 0.17 | – | – | –
IDVLLEQTTGGNNKDLK [RPB4] | – | 3.68 ± 0.27 | – | 3.5 ± 0.079

Sequence | protein stability index (doa10∆) | protein stability index (pdr5∆) | protein stability index (san1∆) | protein stability index (ubr1∆)
KTNKISILKRHSFAVLL [NUT1] | 2.03 ± 0.11 | 2.4 ± 0.099 | 2.19 ± 0.12 | 1.99 ± 0.075
IELVVTEKEEAVAKAAE [RPL17A] | 3.41 ± 0.064 | 3.33 ± 0.05 | 3.27 ± 0.04 | 3.25 ± 0.047
TSSAFFYQQVHKKDRLQ [SIR4] | 2.43 ± 0.048 | 2 ± 0.046 | 2.26 ± 0.053 | 2.44 ± 0.032
QLYESGNPVNDANLLGA [COR1] | 2.53 ± 0.059 | 2.65 ± 0.057 | 2.42 ± 0.069 | 2.81 ± 0.044
RKSDQQDVLKGSSASSR [POP1] | 3.29 ± 0.12 | 3.06 ± 0.1 | 3.14 ± 0.071 | 3.31 ± 0.096
VQARDNSQVFGVARIYA [RPS14B] | 2.39 ± 0.074 | 2.3 ± 0.054 | 2.78 ± 0.047 | 2.91 ± 0.059
NVDRLYKLNVRSNDPQS [NUT2] | 3.22 ± 0.11 | 3.2 ± 0.084 | 3.27 ± 0.065 | 3.39 ± 0.089
AVKYGLNHVVALIENKK [RPL8A] | 2.26 ± 0.19 | 2.48 ± 0.12 | – | 2.45 ± 0.067
DVVERLHKNFESENFKI [RGR1] | 3.74 ± 0.18 | 3.4 ± 0.3 | 3.23 ± 0.18 | 3.81 ± 0.18
KQFLTKDLKFPLPHRVQ [RPL20A] | 2.67 ± 0.075 | 2.78 ± 0.057 | 2.86 ± 0.057 | 2.78 ± 0.046
TTPYMTKYERARILGTR [RPO26] | 2.97 ± 0.14 | 3.3 ± 0.091 | 2.56 ± 0.18 | 3.45 ± 0.09
QLLLLSDERAKLELINR [LRP1] | 2.93 ± 0.092 | 3.06 ± 0.18 | 2.99 ± 0.11 | 2.99 ± 0.18
ERELISNIEQTESLRVE [YIL149C/MLP2] | 3.34 ± 0.063 | 3.47 ± 0.078 | 3.18 ± 0.041 | 3.37 ± 0.07
YKENEAMLRENIEVILS [SNF12] | 2.42 ± 0.053 | 2.73 ± 0.071 | 2.84 ± 0.046 | 2.53 ± 0.057
HEILSEPAIEEENGDSI [MED1] | 2.98 ± 0.17 | 3.11 ± 0.12 | 2.99 ± 0.19 | 3.26 ± 0.14
NEVSLAIKKSSMKMELL [SMC2] | 2.69 ± 0.071 | 2.49 ± 0.082 | 3.34 ± 0.12 | 2.21 ± 0.075
ITLALSSNPNSSLHSPT [SRB4] | 2.9 ± 0.067 | 2.99 ± 0.055 | 2.91 ± 0.047 | 3.05 ± 0.044
ETVAKSKNAERKWAARA [RPS8A] | 3.184 ± 0.028 | 3.362 ± 0.027 | 3.196 ± 0.018 | 3.315 ± 0.021
KDSLDNTFVTRLNNVFV [RPS4A] | 3.02 ± 0.11 | 3.02 ± 0.078 | 2.95 ± 0.085 | 2.95 ± 0.062

Sequence | protein stability index (doa10∆) | protein stability index (pdr5∆) | protein stability index (san1∆) | protein stability index (ubr1∆)
ASGCNVTPIIDGIVVKN [ARP7] | 1.9 ± 0.064 | 2.38 ± 0.063 | 2.25 ± 0.077 | 2.9 ± 0.055
AGSAALKIIHDTFRWVG [RPO31] | 3.23 ± 0.093 | 2.85 ± 0.12 | 1.19 ± 0.17 | 3.24 ± 0.063
DELLSQLDLCKLYFQLF [SRP68] | 1.56 ± 0.1 | 1.67 ± 0.11 | 1.46 ± 0.15 | 1.72 ± 0.057
LYLQDSNDKFVHVQLLI [SRB8] | 1.96 ± 0.055 | 2.06 ± 0.057 | 1.93 ± 0.066 | 2.17 ± 0.042
SKYFIIDSFFLYVLPSF [YMR129W/POM152] | 1.55 ± 0.045 | 1.65 ± 0.035 | 1.75 ± 0.06 | 1.23 ± 0.028
KLVTNVVDPKTSIEKSS [YML103C/NUP188] | 2.31 ± 0.056 | 2.71 ± 0.049 | 2.52 ± 0.069 | 2.62 ± 0.051
TGHLFLKIIHTSVWAGQ [PRP8] | 1.31 ± 0.06 | 1.31 ± 0.056 | 1.19 ± 0.097 | 1.28 ± 0.051
GMCQLYFWHKIWRKVPG [SNU114] | 1.97 ± 0.064 | 1.8 ± 0.057 | 2.12 ± 0.091 | 2.14 ± 0.048
ELKKKRKIKRLEKFLQG [SRP72] | 3.22 ± 0.073 | 3.24 ± 0.091 | 3.19 ± 0.09 | 3.25 ± 0.049
VGVIGPLHSGKTSLMDL [SNU114] | 2.97 ± 0.11 | 2.68 ± 0.11 | 3.29 ± 0.19 | 3.13 ± 0.07
KNIKIIMATNRLDILDP [RPT6] | 2.91 ± 0.14 | 2.55 ± 0.079 | 2.41 ± 0.068 | 3.3 ± 0.058
KGLQIYQSSVQEPFLNS [PRP8] | 2.89 ± 0.05 | 2.94 ± 0.044 | 2.76 ± 0.048 | 2.83 ± 0.04
GPPQSLYGLNLTLRKAK [FAS1] | 2.81 ± 0.064 | 2.15 ± 0.065 | 3.32 ± 0.06 | 2.42 ± 0.051
PIYYQKLKHMVLDKMHA [RET1] | 1.58 ± 0.076 | 2.03 ± 0.088 | 1.62 ± 0.094 | 1.77 ± 0.063
HYKQQIAVLIELLEERF [YCS4] | 2.01 ± 0.07 | 2.12 ± 0.065 | 2.48 ± 0.1 | 2.34 ± 0.072
PGRIDRKILFENPDLST [RPT2] | – | 3.52 ± 0.28 | 3.35 ± 0.14 | 3.37 ± 0.056
TVISGDPNLELDQVGVP [RPO21] | 3.48 ± 0.23 | 3.2 ± 0.13 | 2.48 ± 0.23 | 3.04 ± 0.16
TGLHFGRLSLRSLTAYA [QCR10] | 1.22 ± 0.044 | 1.5 ± 0.059 | 1.39 ± 0.095 | 1.65 ± 0.055
